Laboratory results as given in the supplement of paper PMC9170038.
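Note: bound reporter read as fluorescence of individual clusters on recovered sequencing chips by microscopy, with normalized cluster intensities fitted with a binding model.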

Each sequence was assayed on K4 kissing-loop RNA reporter (assay: apparent KD of K4 kissing-loop reporter; higher = weaker reporter binding). Settings: Eterna round: R107; input ligand: FMN 200 uM.
Description: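 RNA-MaP round R107: designed RNA switches with theophylline, tryptophan, arginine or FMN aptamers are transcribed on-chip within common flanks. They are titrated with a labelled K4 kissing-loop RNA reporter in RNA-MaP buffer (100 mM Tris pH 7.5, 80 mM KCl, 4 mM MgCl2), without ligand or with the indicated ligand. Median apparent KD per design.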
In the case of “UUGGAAAGACCAGAACAGGGCCUUAUCUGGGAGGAUAUGCUGGAGGGCAGAAGGCCCAGUGAUGUUGGGCCUUGUGCUCGUUCUA [Ainanti]”, the “apparent KD of K4 kissing-loop reporter” value is reported as 165 nM.
With “AAUGCAUUGUGAAGGAGCGCGAUAGGCAGUGAUGUUGCUUACAUUUUAUUAUGUUUUAAAACGCAGGUAGGUCGCACUUUGCAUA [JR_Nu_SSArginiB_Sub030]” the “apparent KD of K4 kissing-loop reporter” value was 187 nM.
“AAUGCAUAGUGAAGGAGCGCGAUAAGCAGUGAUGUUGCUUAGUUAUAAGUGUUUAUUUAUUCGCAGGUAGGUCGCACUUUGCAUA [JR_ExcArginiB_Sub019]” was tested, and the “apparent KD of K4 kissing-loop reporter” value was 147 nM.
With “CUUAUUAUGUCGGCCGCCACUCAAUGAUAAUCCACUAAAUUGCGAUUCAGUGAUGUUGAAGUGCUGAGGACCGGGACUAUUAACA [theeternabot_sameState_KL_Trp_B_22]” the “apparent KD of K4 kissing-loop reporter” value was 541 nM.
With “AUGUCUGAUAGCAGUGAUGUUGCUUCGGAUACCAGACGAGAUCAUGUCCCUUGGCAGCUGACACGGCACGUGCUAGGUUAGAUGG [whbob_Ex_Theo_A_th73]” the “apparent KD of K4 kissing-loop reporter” value was 121 nM.
With “AGUGAUAUAUGAGGAUAUGGGAUAGUUAAUGAGUUAGUUUUAGUGUUGUUUGGUUAGUGAUGUUAUUUAGAAGGCGUGAGUGAUG [tptymullin]” the “apparent KD of K4 kissing-loop reporter” value was 107 nM.
In the case of “UGACAUUGCUCAGAUACCAGACUUGAGGAUCACCCAGGUGCCAAACGUACAAUAAUAAAAGUCCCUUGGCAGCUGAGCAAUGUCU [TheoBX 14]”, the “apparent KD of K4 kissing-loop reporter” value is reported as 65.7 nM.
“UAUAUAGUGACGGCCGCCACUAUAUUAAUGUUUUUGUUAGAGUGAUGUUUUGUUUUAUAUUUUUAUAGGACCGGGUUAUAUGUUA [klppxmullin]” was tested, and the “apparent KD of K4 kissing-loop reporter” value was 497 nM.
“GAUGGCAUGCGAGGAUAUUGUACGGAGUGAUGUUCCCAUUAUCCAGGUAUUCGAUUGACGAGUAUCCAAGAAGGCGCAUGCCAUC” was tested, and the “apparent KD of K4 kissing-loop reporter” value was 248 nM.
For “AAAGUUGAAAGUGAUACCAGACGAGUGAAGGGAAGAAAUUAAUUUGGAGUGAUGUUCCGCGUCCCUUGGCAGCACUUUGUAAUUU [Exclusion Theophylline B GF 23]”, the “apparent KD of K4 kissing-loop reporter” value was 123 nM.
With “ACGAAGGAUGGAAGGAGCGCUCGUCAGUCCUGCGAGUGAUGUUCGUGGGUAAAUAGUCGCGAGCAGGUAGGUCGCCAUCUUGAGC [Isarteza]” the “apparent KD of K4 kissing-loop reporter” value was 133 nM.
For “AUAUAGUGAUGUUAUAUAAUAAUCUCUGAUACCAGUCAUUUAGAAGACCCUUGGCAGCAGCUAUAUAUAGGGAAACAAUACAUAA [AstrosExytheA#1]”, the “apparent KD of K4 kissing-loop reporter” value was 739 nM.
In the case of “GCUAUGGUUGGAAGGAGCGUUGGGUUACUAAUAAGAGUGAUGUUCGAUAGUAGGUAAUUGUAGCAGGUAGGUCGCCAACUAUAGC [KL-Arg B26]”, the “apparent KD of K4 kissing-loop reporter” value is reported as 290 nM.
In the case of “UGAUACCAGACGGCCGCCACUGCACCAGUCAAUGACUGAGUGUAGUAUUGCUCAGUGAUGUUGAGUAGGACCGGGUCUGGUAUCU [Mod of Eli's TrypBX 8]”, the “apparent KD of K4 kissing-loop reporter” value is reported as 109 nM.
For “CAUAGGAAACUAUGUAUCUCUCUUACUGAAGGAGCGCGUGAAAACGCAGGUAGGUCGCAGAAUUUAAUAGAGAGUGAUGUUCUCA [Ex Arginine A K4 6]”, the “apparent KD of K4 kissing-loop reporter” value was 393 nM.
In the case of “UGCGUCGGUUCAGAUACCAGCCAAUUAGAGUCGAGUGAUGUUCGACAUUGAACGUCCAAAGGCCCUUGGCAGCUGGAUUGAGGAU [Same State Theophylline B GF 21]”, the “apparent KD of K4 kissing-loop reporter” value is reported as 211 nM.
In the case of “UUAAGGGUCCGAGGAUAUCUCCCAGUGAUGUUGGGCGAUACGGCCCUUAAGACGAAUGGUUGAAGGAGAGAAGGCGGCUCCCGAU [Onatbi]”, the “apparent KD of K4 kissing-loop reporter” value is reported as 119 nM.

Same assay, conditions: Eterna round: R107; input ligand: arginine 13.2 mM
In the case of “CAUACGCAUGGAGGAUAUGAGAUUUCUCAUAUUAUUGUUUAUUCUCAGUGAUGUUGGGAUUUAAACUCAGAAGGCCAUGUGUAUG [Ex FMN B 9]”, the “apparent KD of K4 kissing-loop reporter” value is reported as 124 nM.
For “CCUGAGUGAUGUUUAGGAGGCCCGAUAGAUACCAGAAAUACUGCGUUCCCUUGGCAGCUACGCGGACGGAAGACUACGUUACACG [theeternabot_exclusion_KL_Theo_A_16]”, the “apparent KD of K4 kissing-loop reporter” value was 222 nM.
For “CCAGGUGGAAAAGGAUAUCUAGGAGUGAUGUUCCAUAUGAAAUUAGUUUAUCACCAAACGUCGACCAGAGAAGGUUUCCCAAUUU [theeternabot_exclusion_KL_FMN_B_31]”, the “apparent KD of K4 kissing-loop reporter” value was 252 nM.
With “AAAAUAAUCCAGUGAUGUUGGUAUCCAGAUACCAGCGACGAAAGUCGCCCUUGGCAGCUGUGGACGUACAAAAUAAGUACGUCCU [#OpenEnded 9 #StaticStem #K4Early]” the “apparent KD of K4 kissing-loop reporter” value was 386 nM.
In the case of “GGCGCUGCCUGUGCCGCCCUCCUCGUCCCUCGAGGACCGGUACGGCCGCCACUCGAGUGAUGUUCGGGUAGCCCUCCCUGCCAGC [BDazzled - #23 Exc. Tryptophan A]”, the “apparent KD of K4 kissing-loop reporter” value is reported as 407 nM.
For “GCUAUGGUAGGAAGGAGCGCUUAUUUAUUAAUAAGAGUGAUGUUCGAUAAUAGAUAUUUAUAGCAGGUAGGUCGCCUACUAUAGC [Arginine B K4 11]”, the “apparent KD of K4 kissing-loop reporter” value was 278 nM.
With “AGUAGUUGGGCGGCCGCCACUAGAACAGCUUUGCCAAAGGCAGAGCUCUAGAGUGAUGUUCUGGCUAGGACCGGGUCCAACUACA [#01 K4 Tryptophan B Same State]” the “apparent KD of K4 kissing-loop reporter” value was 594 nM.
For “GUGCAGUGAUGUUGCACGAGGAAAGACGAUACCAGCCGUAAAUAAGGCCCUUGGCAGCGUAGGCCAGCAUAAAGUAUGCUAGUCU [Oresbelaen]”, the “apparent KD of K4 kissing-loop reporter” value was 107 nM.
With “AAAUUUAAUAUAUUUAAAUAAAUAUGUGAUACCAGACAUUUAUAAGUCCCUUGGCAGCACAUUGCAGUGAUGUUGCUUAUAAUAA [JR_SSTheophyA_Sub016]” the “apparent KD of K4 kissing-loop reporter” value was 80.9 nM.
“GGGUUCUCGUCGGCCGCCACUUCAUGUAUUUAGCAGGCUUCGCUCAGACUCAGUGAUGUUGGGUAAAGGACCGGGACACAUUCAA [theeternabot_exclusion_KL_Trp_B_50]” was tested, and the “apparent KD of K4 kissing-loop reporter” value was 245 nM.
